Experimental data published in article PMC10879569, “Major cardiovascular events under biologic psoriasis therapies: a 19-year real-world analysis of FAERS data” (Frontiers in Immunology, 2024).

Columns and labels:
[1] = system: active psoriatic arthritis; details: in vivo; cited from earlier work
[2] = design: method as in PMID 22011907, PMID 21862748; details: 2011; cited from earlier work
[3] = system: patients with psoriasis indication; assay: FAERS disproportionality analysis (PRR and MGPS/EBGM) of MACEs reporting versus other psoriasis treatments; type: in vivo; details: compared among the biological classes
Text: FAERS collects […] of drug adverse events reports worldwide submitted by health professionals, consumers, and manufacturers. We chose the FAERS dataset as the data source for this study, and the analytical period was from January 2004 to December 2022. To enhance the reliability and validity of our results, only records submitted by professional health workers (e.g., physicians, pharmacists, and other health professionals) were included. To avoid potential confounders in causality assessments such as indication, the analysis was refined by retaining only reports with an expanded psoriasis indication. The raw FAERS data were cleaned, mapped, de-duplicated, and normalized by SQL server Data Mining.
The names are listed in Supplementary Table S1 .
Inclusion of reports was limited to only those cases where a biologic drug was identified as “the primary suspect” or”secondary suspect”. The control groups were comprised of the population who were indicated with psoriasis and receiving other psoriasis systemic therapies except biological agents. […]
This study is a case–non-case study. […] Disproportionality analysis (proportional reporting ratio, PRR) and MGPS were calculated to identify drug–event combinations with reporting rates higher than expected versus other drugs among patients with psoriasis indication. […]

[4] = system: psoriasis; details: in vivo; cited from earlier work
[5] = in vivo; cited from earlier work

## Secukinumab
[1]
  MACEs reported in the treatment group: two

## Adalimumab
[1]
  MACEs reported in the treatment group: none

## briakinumab
[2]
  fate of clinical trials after reports of serious cardiovascular adverse events (e.g., myocardial infarction, cardiac death): discontinued before marketing

## Ustekinumab
[3]
  reporting rate for the four SMQs (myocardial infarction, stroke, cardiac fatality, death): highest reporting rate for all four SMQs

## Ixekizumab
[4]
  MACEs events reported in the treatment group: two

## Risankizumab
[5]
  cardiac disorders as share of serious adverse events suspected of being caused by the drug: 10.9%
